± gives the standard deviation of the averaged measurements.
Tested on: Saccharomyces cerevisiae
Assay: protein stability index of tFT-peptide fusion (C-terminal peptide) (PSI (0-1 scale)); higher = more stable (slower turnover)
Settings: genetic background: wild type; temperature: 30 C
Description: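 Multiplexed protein stability (MPS) profiling in S. cerevisiae. Random 12-aa peptides (tFT-X12 library) are fused to the C-terminus of a sfGFP-mCherry tandem fluorescent timer, after mCherry and a GGGS linker. Cells are FACS-sorted into 8 mCherry/sfGFP bins and deep-sequenced. The protein stability index (PSI) is the read-weighted bin average, scaled from 0 (unstable) to 1 (stable). Only peptides with >10 reads are reported; cells were grown at 30 °C in SC-His with glucose.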
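Also: PSI is a weighted mean of sequencing reads over stability bins, variants kept only with over 10 reads, mCherry proximal and sfGFP distal, peptide attached via GGGS linker.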

Sequence | protein stability index
FPLPLCHSPAPP | 0.606 ± 0.027
LPSPPASSPRRS | 0.684 ± 0.025
TGVRSAEAKRKQ | 0.579 ± 0.05
IWAEYIDAVLIN | 0.6 ± 0.061
STSSNGVGLPRL | 0.901 ± 0.11
NGRPGPAEPELW | 0.692 ± 0.043
GVGMWCSRLRVG | 0.5952 ± 0.00044
PAPRARTPLDRI | 0.683 ± 0.039
EAGRRVGARRVG | 0.689 ± 0.059
TAPPSISYVQAF | 0.639 ± 0.021
PPPLPTPSLPPP | 0.70185 ± 0.00011
AWEPGGVVAVLL | 0.621 ± 0.14
PSSCSPPPSSPS | 0.692 ± 0.064
LPRLSPSPRPSR | 0.719 ± 0.008
YFESKWKYAGVR | 0.699 ± 0.0074
QYASPSISTLPV | 0.726 ± 0.065
PPPYHPDATFTT | 0.7063 ± 0.0025
VTREEALICSQP | 0.811 ± 0.13
CYVGALQKCGTR | 0.674 ± 0.01
PRRHLALLISEG | 0.6868 ± 0.00082
RVSPGGLCALSV | 0.701 ± 0.051
LCPSLSSPTSAT | 0.659 ± 0.029
IVGLLGICVGRC | 0.57 ± 0.024
FLSLSLFPFSSL | 0.698 ± 0.024
ACSPGHCTTGTS | 0.649 ± 0.021

Sequence | protein stability index
TSGLSSAGSRSL | 0.647 ± 0.044
VFPARTALFFPQ | 0.726 ± 0.05
ALPPSPLLPTLP | 0.702 ± 0.062
PPPPPPPASLLP | 0.755 ± 0.056
PPSPPPGTCPPD | 0.617 ± 0.064
TISHYSLAPTQI | 0.695 ± 0.02
FSGSSCSSPFCF | 0.632 ± 0.033
DRRRVIIKENKA | 0.675 ± 0.024
GGGGCRVRGLGA | 0.684 ± 0.041
TLPPSPTPPLYP | 0.773 ± 0.031
HSSPHFTTTKTP | 0.7081 ± 0.0016
SNHYYFILSHFA | 0.661 ± 0.0093
PPLGITHPSFPS | 0.787 ± 0.025
EALKCFADAYTC | 0.661 ± 0.063
GPPFPPLPLPPP | 0.658 ± 0.079
IVGGDSVSALRG | 0.643 ± 0.022
CNSRVSAVGLII | 0.6303 ± 0.0018
PPPPRAISPLLP | 0.666 ± 0.031
PRPPYTPSPPHQ | 0.774 ± 0.016
LMRFFSCTLSFE | 0.62535 ± 0.00026
LGGVGSSGDVVA | 0.648 ± 0.017
VVLPLCRVPSHW | 0.688 ± 0.05
FITRPYKNIKNR | 0.702 ± 0.031
SLGNTRRTKKSI | 0.636 ± 0.054
KKKKKKNNSKTT | 0.739 ± 0.19

Sequence | protein stability index
WNCRILGLVMRG | 0.695 ± 0.029
PTLFSLLLRAFL | 0.623 ± 0.13
KKLGLINITIRV | 0.535 ± 0.017
SGGCGWGAGVRV | 0.778 ± 0.02
FGWFDIKDSTNS | 0.7177 ± 0.0048
GDTVLLCDLASC | 0.687 ± 0.0092
KAIKNKQKFKEK | 0.726 ± 0.012
RPCDLISGFCGL | 0.695 ± 0.012
FFFECPCWLGVF | 0.542 ± 0.019
REKEKGYLNKKK | 0.743 ± 0.041
PSPSFLVFATSY | 0.628 ± 0.027
ILSASARPPRPA | 0.701 ± 0.011
GGGGGGRLEGGA | 0.66 ± 0.07
GTPHSKGVGFDH | 0.655 ± 0.048
NKRKDEIKPRNV | 0.581 ± 0.049
ALWGHSWHSSLR | 0.713 ± 0.015
SLRILFDLRISL | 0.605 ± 0.031
PLPPPLLPPSSS | 0.7302 ± 0.0013
VRGFFTLSGNLI | 0.716 ± 0.072
GESGGGAVGGGW | 0.64 ± 0.039
TLNSSPFTTPTI | 0.717 ± 0.074
RGGRGLECAFYI | 0.7903 ± 0.001
YIHGFRLFGCVD | 0.668 ± 0.031
RPEVRTGPASTH | 0.676 ± 0.032
VTSVCGYVRIWW | 0.71 ± 0.047

Sequence | protein stability index
GEGKAGGESEEP | 0.62 ± 0.068
RCGVGGSVSFWW | 0.689 ± 0.05
VSLPMAPPPLDG | 0.616 ± 0.013
FSPLLQSPLLAP | 0.692 ± 0.0089
RPELRRETARVR | 0.644 ± 0.038
GGPGWGVSGWEG | 0.705 ± 0.015
GFGSSSFLCFSR | 0.669 ± 0.042
YGFLRSWCICDT | 0.729 ± 0.098
RFTCYLCLKGLL | 0.681 ± 0.052
NRSIFITMDSSL | 0.676 ± 0.011
PYFVGSGLVVLC | 0.5639 ± 0.0055
PSPFPCVFRFSA | 0.635 ± 0.029
DSSGATGLLYML | 0.746 ± 0.022
RGPPIPTLRYQH | 0.746 ± 0.079
LHPSPPSPLPPP | 0.723 ± 0.028
GLGLASSGWGRG | 0.733 ± 0.018
PFVAFLPPLSPP | 0.702 ± 0.037
SYRGIGVGLCAG | 0.622 ± 0.016
GRGFGVILGGCS | 0.692 ± 0.02
VKTIRVTKSVGD | 0.6941 ± 0.0057
NGGKDAVVLGGG | 0.636 ± 0.054
GWCGGAIIRAWD | 0.678 ± 0.039
AFFYLRGQESLL | 0.688 ± 0.077
VAASGEVVPLMA | 0.604 ± 0.046
SWGGLGSFCRVI | 0.684 ± 0.014

Sequence | protein stability index
VRFVVRVFQCSF | 0.466 ± 0.052
GEKKKAILGKRK | 0.62 ± 0.011
VPLRGPAPPRPR | 0.739 ± 0.035
GGGTLGQWCCDV | 0.6835 ± 0.0029
AYVFLPINKENR | 0.6405 ± 0.0053
YTHIRGVLFGVR | 0.704 ± 0.034
TNYKIKDDRLHR | 0.699 ± 0.014
PIPPDPPAYQGQ | 0.6426 ± 0.0064
GGWGWRSGTEGE | 0.665 ± 0.012
LGGRNNRQMSSG | 0.678 ± 0.11
TSSYFVLFLTSP | 0.635 ± 0.087
GGGGGGGVGMMW | 0.738 ± 0.02
NRQNYAEDLKSC | 0.683 ± 0.02
DSFGSERYEPCK | 0.622 ± 0.0097
PPPLRAPPLSLP | 0.62 ± 0.0068
ISLCSVARLGFA | 0.704 ± 0.021
NSPRKKPHKSIT | 0.711 ± 0.014
HILSPRPAIGVL | 0.612 ± 0.021
QAGKPLYVEMVS | 0.609 ± 0.021
GHLGLFEEETGG | 0.711 ± 0.053
ADTIKRTKRSYP | 0.643 ± 0.1
PPASLFFPPLSP | 0.756 ± 0.13
PRQLPVRKVSTG | 0.7042 ± 0.0022
IYSPQIPTPPVL | 0.664 ± 0.058
SVPPCSLPPLPP | 0.6407 ± 0.0048

Sequence | protein stability index
RYRSQNNKKLEE | 0.658 ± 0.024
SPLRHLPGPSFP | 0.696 ± 0.012
SFRLLCPPPPLP | 0.6805 ± 0.0046
LFCHHCASLVDL | 0.722 ± 0.002
LTAFFPFSTFFP | 0.714 ± 0.042
SPLPLFSPCPPP | 0.693 ± 0.014
DRFLPPALVMYI | 0.566 ± 0.038
DWVLGRRDTRKP | 0.752 ± 0.025
PRPRSPLSPLAL | 0.676 ± 0.031
TCVASLSVLCLL | 0.574 ± 0.048
ASLLSCRLPCLC | 0.518 ± 0.026
GGSRGGTFLWGP | 0.672 ± 0.036
FPPPLPLSPPPP | 0.746 ± 0.085
MIKINHRIKIKY | 0.7115 ± 0.0039
GSAFIRFRSSFG | 0.638 ± 0.022
SSLSFAPAPPFV | 0.698 ± 0.035
DAGRLLIVSVDS | 0.662 ± 0.036
PPSSDRPSIILP | 0.691 ± 0.081
RFVTLLSDFFLL | 0.681 ± 0.063
ILNNSDRAYTIQ | 0.731 ± 0.04
RYLLCSSVESAV | 0.639 ± 0.028
VVLFHGLGFCHN | 0.627 ± 0.072
TPHPPAAPPPPL | 0.766 ± 0.082
PPSLLFPLPLAS | 0.649 ± 0.11
LPILPSPLPPPL | 0.69 ± 0.049

Sequence | protein stability index
GCWVNFLLTHFF | 0.527 ± 0.024
IADGSEIVRSLI | 0.71 ± 0.038
PPIALTPRTPAP | 0.747 ± 0.097
LIVFSFLSCPVP | 0.5234 ± 0.0013
EGGGGVEGAAWG | 0.694 ± 0.022
GWDRNVGWVVGR | 0.735 ± 0.044
ESASSLNFTSLM | 0.731 ± 0.053
EKKKNKTQLKTK | 0.667 ± 0.024
WGGRSGTWGLVG | 0.803 ± 0.1
SPPLPPLPSVAF | 0.637 ± 0.16
IRRNRGLKWNVN | 0.613 ± 0.068
RKNKLKQNKKYR | 0.718 ± 0.012
HVDSLPRPLLPS | 0.716 ± 0.056
WGRGWWEMVGRT | 0.686 ± 0.0074
TLSSSPRPLPVP | 0.692 ± 0.051
SRERRPKVFILR | 0.669 ± 0.027
GGVGGPGLDGWK | 0.676 ± 0.059
PLRGPPPPPLPI | 0.677 ± 0.07
SSPGFCRVFVFF | 0.491 ± 0.018
ANRLNASYQVSD | 0.6982 ± 0.0038
VWVGGGRRDPKY | 0.735 ± 0.075
VFHSSTRDSFVS | 0.751 ± 0.066
LPLQYPPSLLRL | 0.6655 ± 0.0065
YGGDMHGNNFSG | 0.701 ± 0.011
SPRPHRHLPFRP | 0.709 ± 0.0072

Sequence | protein stability index
ESLAKLPLRRPR | 0.63 ± 0.011
RSSDRGDVRATC | 0.689 ± 0.062
AAIPPPLHTWRY | 0.722 ± 0.054
GGGGAGFRGGIE | 0.68 ± 0.0019
WKEVGGSRILLV | 0.6033 ± 0.0031
AVGVCGGGWWWA | 0.792 ± 0.098
AVFWLRFSRISV | 0.618 ± 0.0094
LGGGGGVECRVG | 0.672 ± 0.058
KKKKKSKKKETR | 0.807 ± 0.11
GGGWSGRGVGDR | 0.727 ± 0.078
RIQYKKKNRKGI | 0.628 ± 0.037
SSRSMKKKKVKI | 0.7034 ± 0.0027
ACTWASSSLARG | 0.735 ± 0.027
GAVWAWRRLKGG | 0.619 ± 0.035
QTTKRKKKAKKK | 0.675 ± 0.089
PPPRPLSPPFPF | 0.641 ± 0.05
GCGAMGWAVPAA | 0.655 ± 0.041
VLLAGPIPSALP | 0.662 ± 0.0079
PPPRSPPAPPPP | 0.774 ± 0.052
VGAGLRMRVGEA | 0.669 ± 0.035
EAQWRGVRHHSR | 0.641 ± 0.036

Reference: the supplement of paper PMC10724198
